Data set [1] concerns the target T1, KLHDC2 SBD (Homo sapiens, UniProt Q9Y2U9).
T1 sequence (Q9Y2U9 15-361): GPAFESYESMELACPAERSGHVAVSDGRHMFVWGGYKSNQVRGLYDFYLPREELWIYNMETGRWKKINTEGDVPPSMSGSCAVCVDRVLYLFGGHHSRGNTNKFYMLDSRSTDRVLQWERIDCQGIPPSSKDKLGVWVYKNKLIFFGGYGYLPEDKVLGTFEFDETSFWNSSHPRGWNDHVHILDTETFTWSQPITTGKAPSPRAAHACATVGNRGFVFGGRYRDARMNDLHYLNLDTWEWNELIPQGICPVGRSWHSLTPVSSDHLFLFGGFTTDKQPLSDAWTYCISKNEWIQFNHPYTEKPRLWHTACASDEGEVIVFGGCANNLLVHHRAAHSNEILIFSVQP
The data set is described as follows: SPR binding to immobilised KLHDC2 SBD. The conditions noted are these: for Kd: 10xHis-KLHDC2 SBD, pH 7.4, 20°C, triplicate, 1-site model, substrates (Figure S1C). Background: Surface plasmon resonance follows binding to a sensor surface in real time, without labels.

In data set [2] the test system is KLHDC2-EloBC. Kind of data set: Native gel electrophoresis, substrate. The format is binding, human.
Data set [3] deals with neddylated CRL2^KLHDC2. The data set is described as follows: Pulse-chase ubiquitylation of substrates or KLHDC2. The format is biochemical, human.
For data set [4], the system named is CUL2-RBX1. The data set is described as follows: CUL2-RBX1 neddylation pulse-chase. The format is biochemical, human. The following applies: tetramer supplied with substrate, without CAND1.
Data set [5] concerns the target KLHDC2-EloBC substrate receptor complex (full-length WT KLHDC2, EloB, EloC) (UniProt Q9Y2U9). The data set is described as follows: AUC.
Data set [6] has the same target. Kind of data set: SEC. On the technique in general: SEC sorts molecules by how far they enter the pores of the column.
Data set [7] has as its target KLHDC3-EloBC complex (full-length KLHDC3, EloB, EloC) (UniProt Q9BQ90).
For data set [8], the target named is 10xHis-KLHDC2 SBD (residues 15-361) (human) (UniProt Q9Y2U9). Kind of data set: SPR.
Data set [9] concerns the molecule itself. Kind of data set: crystal structure.
Data set [10] has as its system USP1 N-fragment in U2OS cells. Kind of data set: Steady-state USP1 N-fragment levels in U2OS cells. The conditions noted are these: exogenous rescue in KLHDC2 KO U2OS, n=3 technical replicates.
The test system of data set [11] is CUL2 in 293T cells. Kind of data set: FLAG immunoprecipitation of KLHDC2, associated CUL2 neddylation state. The format is cell-based, human. The following applies: FLAG-KLHDC2, no treatment.
Data set [12] has as its system KLHDC2 in U2OS cells. The data set is described as follows: K48-ubiquitylation of FLAG-KLHDC2 in U2OS cells. The format is cell-based, human. The following applies: Bortezomib 1 μM, five hours, K48 antibody.
The test system of data set [13] is KLHDC2 in U2OS cells. Kind of data set: Steady-state KLHDC2 protein levels in U2OS cells.
Data set [14] has as its system NEDD8 in U2OS cells. The data set is described as follows: Steady-state NEDD8 levels in U2OS cells. The conditions noted are these: ectopic expression in KLHDC2 KO U2OS.
Data set [15] addresses T2, KLHDC2 substrate-binding domain (SBD), residues 15-361 (human, UniProt Q9Y2U9 15-361).
T2 sequence (looked up): T1 sequence (Q9Y2U9 15-361)
Kind of data set: crystal structure.

In data set [16] the target is T3, 10xHis-KLHDC2 SBD (residues 15-361) (human, UniProt Q9Y2U9 15-361).
T3 sequence (looked up): T1 sequence (Q9Y2U9 15-361)
The data set is described as follows: SPR.

For data set [17], the system named is CRL2^KLHDC2. The data set is described as follows: Pre-steady state rapid quench flow ubiquitylation. The conditions noted are these: KLHDC2 -KK, UBE2R2, one-hour equilibration of substrate with E3, triplicate. The format is biochemical, human.

No end group written: not given here. Bounds are passed on as bounds.

Consider 13 molecules from paper PMC10080726 (Molecular cell, 2023).

Broadly, the Kd is the concentration at which binding is half-saturated. High values mean a looser complex, low ones a tighter complex. In general, stoichiometry N refers to the number of molecules, sites or subunits per partner or assembly.

For the molecule “GFP-RIC8B: C-terminal 23 amino-acids of RIC8B appended to the C-terminus of GFP ({GFP}-TITPLEEALNQYSVIEETSSDTD)”, in [1], the Kd is 460 nM.

For the molecule “KLHDC2-EloBC: full-length KLHDC2-EloBC substrate receptor complex, tetrameric”, in data set [2] (native gel, 2.5 μM KLHDC2, pH 7.5), the “FAM-SELK binding (in words)” value is “a single band appeared”. In [3] (UB~UBCH5B, WT or C-degron mutants, with or without SELK), the “auto-ubiquitylation of KLHDC2” value is reported as “subject to auto-ubiquitylation”. In data set [4], the “rate of CUL2-RBX1 neddylation (in words)” value is given as “greatest”.

Turning to “KLHDC2-EloBC substrate receptor complex (full-length WT KLHDC2, EloB, EloC) (from UniProt Q9Y2U9 1-406; Q15370 1-104; Q15369 17-112)”, the Kd in data set [5] was 0.15 nM; in data set [6], 0.18 to 0.26 nM.

The molecule “KLHDC3-EloBC complex (full-length KLHDC3, EloB, EloC) (from UniProt Q9BQ90 1-382; Q15370 1-104; Q15369 17-112)” gave a stoichiometry N in [7] of 4.

Regarding CUL2-RBX1: CUL2-RBX1 complex, the “required pre-incubation time for KLHDC2-FAM-SELK complex formation” value in data set [2] (with CUL2-RBX1) was below 3 h.

For the molecule “NQRFGSNNTSGS-OH [WT KLHDC2-derived peptide]”, the “affinity lower than physiological substrates” value in data set [1] (vs peptides from physiological substrates USP1 and GFP-RIC8B) is on record as 3–5 fold.

“WT KLHDC2-derived peptide (C-terminus of KLHDC2) used in SPR” returned a Kd in data set [8] of 1400 nM. This lies in the single-digit micromolar range.

B1: KLHDC2, full length (the KLHDC2 chain of the KLHDC2-EloBC crystal structure) (natural protein, human, UniProt Q9Y2U9 1-406, looked up)
chain: MADGNEDLRADDLPGPAFESYESMELACPAERSGHVAVSDGRHMFVWGGYKSNQVRGLYDFYLPREELWIYNMETGRWKKINTEGDVPPSMSGSCAVCVDRVLYLFGGHHSRGNTNKFYMLDSRSTDRVLQWERIDCQGIPPSSKDKLGVWVYKNKLIFFGGYGYLPEDKVLGTFEFDETSFWNSSHPRGWNDHVHILDTETFTWSQPITTGKAPSPRAAHACATVGNRGFVFGGRYRDARMNDLHYLNLDTWEWNELIPQGICPVGRSWHSLTPVSSDHLFLFGGFTTDKQPLSDAWTYCISKNEWIQFNHPYTEKPRLWHTACASDEGEVIVFGGCANNLLVHHRAAHSNEILIFSVQPKSLVRLSLEAVICFKEMLANSWNCLPKHLLHSVNQRFGSNNTSGS
Consider B1, for which the binding result in [9] was “binds”.

B2: WT KLHDC2: FLAG-tagged WT KLHDC2 expressed in cells; KLHDC2 in CRL2^KLHDC2 (protein)
chain: B1 chain
modifications: left off: FLAG, N-terminal, kept
On to B2, for which the “auto-ubiquitylation of KLHDC2” value in [3] (no substrate, UB~UBE2R2) is “rapidly ubiquitylated”. The “reduction of USP1 N-fragment levels” value in [10] is reported as ~ 4 fold. In data set [11], the “co-precipitated CUL2 neddylation state (in words)” value was “co-precipitated a mixture of unmodified and neddylated CUL2”. The “ubiquitylation of KLHDC2 (in words)” value in [12] was “more ubiquitylated than their monomeric counterparts”. The “exogenous expression relative to endogenous KLHDC2” value in data set [13] (U2OS) is given as “roughly 10 -fold”. The “KLHDC2 protein level (in words)” value in data set [13] (stable FLAG-KLHDC2 in KLHDC2 KO U2OS) was “significantly lower than that of CΔ6 and -KK monomers”. Further, in [14], the “NEDD8 levels (in words)” value is recorded as “reduced the levels of unconjugated NEDD8”.

B3: 12mer peptide derived from the C-terminus of KLHDC2 (peptide, UniProt Q9Y2U9 395-406, looked up)
peptide: NQRFGSNNTSGS
In the case of B3, in data set [15], the binding result is reported as “binds”.

B4: USP1 fragment (residues 592-671) (domain or fragment, UniProt O94782 592-671, looked up)
chain: GHYTASVKVTDLNSLELDKGNFVVDQMCEIGKPEPLNEEEARGVVENYNDEEVSIRVGGNTQPSKVLNKKNVEAIGLLGG
Consider B4, for which the Kd in [16] was found to be 264 nM.

B5: FAM-USP1: fluorescein-labeled USP1 fragment (protein)
chain: B4 chain
modifications: fluorescein on the amino-terminus (sortase-mediated ligation of FAM-(PEG)5-LPETGG peptide); left off: GST, N-terminal, cleaved
For the molecule B5, the “complex formation with KLHDC2-EloBC (in words)” value in [2] (20-fold molar excess of ligand, 4-hour pre-incubation) was “only minimal interaction”.

B6: USP1: USP1 fragment, residues 592–671 (protein)
chain: B4 chain
modifications: left off: GST, N-terminal, cleaved
With B6, the “pre-incubation required for maximal ubiquitylation (in words)” value in data set [3] (KLHDC2 -KK) is recorded as “required no pre-incubation”. In addition, the “*UB transfer to substrate (in words)” value in data set [3] (UB~UBE2R2, neddylated CRL2^KLHDC2 (WT), 0.6 μM substrate, pH 7.5, n=3) is on record as “preferentially promotes *UB ligation to SELK or USP1”. Moreover, the “rate of substrate modification kobs” value in [17] amounted to 0.21 s⁻¹. In data set [1], this molecule had a Kd of 260 nM.
